First the molecules themselves.
B2: AtTRB2-6xHis (natural protein, Arabidopsis thaliana, UniProt Q9FJW5 1-299, looked up)
chain: MGAPKQKWTPEEEAALKAGVLKHGTGKWRTILSDTEFSLILKSRSNVDLKDKWRNISVTALWGSRKKAKLALKRTPPGTKQDDNNTALTIVALTNDDERAKPTSPGGSGGGSPRTCASKRSITSLDKIIFEAITNLRELRGSDRTSIFLYIEENFKTPPNMKRHVAVRLKHLSSNGTLVKIKHKYRFSSNFIPAGARQKAPQLFLEGNNKKDPTKPEENGANSLTKFRVDGELYMIKGMTAQEAAEAAARAVAEAEFAITEAEQAAKEAERAEAEAEAAQIFAKAAMKALKFRIRNHPW

What all share (assay): pull-down
In one experiment the target is T1, AtTRB3-6xHis (Arabidopsis thaliana, UniProt Q9M2X3 1-295).
T1 sequence (looked up): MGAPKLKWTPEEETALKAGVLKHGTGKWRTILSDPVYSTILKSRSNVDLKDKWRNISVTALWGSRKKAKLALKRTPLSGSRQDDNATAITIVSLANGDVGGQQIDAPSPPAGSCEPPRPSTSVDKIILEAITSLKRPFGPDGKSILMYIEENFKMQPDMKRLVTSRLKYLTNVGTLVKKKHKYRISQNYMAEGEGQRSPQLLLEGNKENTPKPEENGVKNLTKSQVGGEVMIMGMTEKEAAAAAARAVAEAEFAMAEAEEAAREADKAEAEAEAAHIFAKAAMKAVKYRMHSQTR

For the experiment “AtTRB2-6xHis”, the target named is B2.
In another experiment the target is T2, GST-HDA6 (Arabidopsis thaliana, UniProt Q9FML2 1-471).
T2 sequence (looked up): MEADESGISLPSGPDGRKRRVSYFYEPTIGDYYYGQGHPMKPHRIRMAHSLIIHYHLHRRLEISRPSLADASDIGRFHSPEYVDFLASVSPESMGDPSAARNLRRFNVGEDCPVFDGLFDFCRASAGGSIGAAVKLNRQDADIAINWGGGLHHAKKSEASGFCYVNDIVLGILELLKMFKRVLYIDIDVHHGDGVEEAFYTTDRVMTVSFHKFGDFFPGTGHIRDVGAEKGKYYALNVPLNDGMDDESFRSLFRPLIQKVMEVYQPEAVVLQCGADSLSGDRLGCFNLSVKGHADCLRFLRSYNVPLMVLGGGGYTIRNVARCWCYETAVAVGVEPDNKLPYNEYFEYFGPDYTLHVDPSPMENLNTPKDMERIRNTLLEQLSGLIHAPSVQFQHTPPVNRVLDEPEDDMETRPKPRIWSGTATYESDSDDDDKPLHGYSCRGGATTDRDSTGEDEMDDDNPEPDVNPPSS

The source of these data is article PMC4889915 (Nucleic Acids Research, 2016).

B1: GST-HDT4 (full-length) (enzyme, Arabidopsis thaliana, UniProt Q9M4T3 1-203, looked up)
chain: MEFWGIEIKPGKPFKVIQKDGFMVHASQVTLGDVEKVKKDETFAVYVKIGDDENGFMIGNLSQKFPQFSIDLYLGHEFEISHNSTSSVYLIGYRTFDAFDELDEEIDSDSELDEYMEQQIAALPQNEINPEEDDESDSDEMGLDEDDDSSDEEDVEAEAPLKVAPPSKKMPNGAFEIAKGGKKNKSSGGKKRCPFPCGPSCKK
Take B1: the binding result in the experiment with AtTRB3-6xHis and with AtTRB2-6xHis was “binds” in each case.
As for B2, the binding result in the experiment with GST-HDA6 is “binds”.
